Assay results: patent publication US20200069786A1, “COMPOSITION AND PROCESS FOR PREPARING VACCINE” (TREOS BIO ZRT., priority 2018, published 2020)

Tested on: metastatic ovarian adenocarcinoma
Experiment: Patient-A clinical outcome and tumor MRI
Type: in vivo, human
Conditions: FU1, Olaparib treatment May 2016-January 2017
Source text: 2017-2018: Patient-A received 8 cycles of vaccination as add-on therapy, and lived 17 months (528 days) after start of the treatment. […] They died in October 2018.
Patient' tumor MRI findings (Baseline Apr. 15, 2016) (BL: baseline for tumor response evaluation on FIG. 22) Disease was confined primarily to liver and lymph nodes. The use of MRI limits detection of lung (pulmonary) metastasis May 2016-January 2017: Olaparib treatment (FU1: follow up 1 on FIG. 22) Dec. […] Peritoneal carcinomatosis with increased amount of ascites. Progressive hepatic tumor and lymph node
Jul. 26, 2017 (after the 2nd Cycle of PIT): (FU4 on FIG. 22) Progression/Pseudo-Progression • Rapid progression in lymph nodes, hepatic, retroperitoneal and thoracic areas, significant pleural fluid and ascites. Initiate Carboplatin, Gemcitabine, Avastin. Sep. […] Nov. […] Remission in hepatic, retroperitoneal area and lymph nodes

Compound	SUM of lesions (% Δ from BL) [%]	TL1 (% Δ from BL) [%]	TL2 (% Δ from BL) [%]	TL3 (% Δ from BL) [%]	TL4 (% Δ from BL) [%]
O=C(c1cc(Cc2n[nH]c(=O)c3ccccc23)ccc1F)N1CCN(C(=O)C2CC2)CC1 [Olaparib]	−66.3	−56.1	−100.0	−59.4	−65.8

Same assay, conditions: FU2, Dec. 25, 2016, before PIT vaccine treatment

Compound	SUM of lesions (% Δ from BL) [%]	TL1 (% Δ from BL) [%]	TL2 (% Δ from BL) [%]	TL3 (% Δ from BL) [%]	TL4 (% Δ from BL) [%]
O=C(c1cc(Cc2n[nH]c(=O)c3ccccc23)ccc1F)N1CCN(C(=O)C2CC2)CC1 [Olaparib]	−76.0	−44.4	−100.0	−62.3	−100.0

Same assay, conditions: FU3, Apr. 6, 2017, after TOPO protocol

Compound	SUM of lesions (% Δ from BL) [%]	TL1 (% Δ from BL) [%]	TL2 (% Δ from BL) [%]	TL3 (% Δ from BL) [%]	TL4 (% Δ from BL) [%]
CC[C@@]1(O)C(=O)OCc2c1cc1n(c2=O)Cc2cc3c(CN(C)C)c(O)ccc3nc2-1 [TOPO protocol]	−68.9	−44.8	−47.1	−62.0	−100.0

Tested on: subjects of 64 clinical studies
Experiment: not given
Conditions: published clinical trials; proportion of subjects in the study population with T cell responses induced by the study vaccine; cited from earlier work

Compound	IRR [%]
Iplilimumab (NYESO-1 specific response)	72
Her2/neu peptide vaccine (p971) (ELVSEFSRM; UniProt P04626 971-979, looked up, fragment)	54

Same assay, conditions: published clinical trials; proportion of subjects with objective response (complete and partial response) after vaccination; cited from earlier work

Compound	ORR [%]
Iplilimumab (NYESO-1 specific response)	25

Tested on: TSA
Experiment: not given
Conditions: BRAIN; cited from earlier work

Compound	TSA Expression Rate (ER) [%]
WT1	81
EPHA2	95
SOX-6	60
SSX-7	0
TSGA10	83
PRAME	56
EZH2	100
SSX-1	0
SPINLW1	47

Same assay, conditions: BREAST; cited from earlier work

Compound	TSA Expression Rate (ER) [%]
WT1	7
JARID1B	76
BAGE-1 (RLMKEESPVVSWRLEPEDGTALCFIF; UniProt Q13072 18-43, looked up)	9
LDHC	35
MAGE-A10	34
TSGA10	70
CDCA1	64
TEX15	0
PRAME	49
SSX-1	9
DBPC	50

Same assay, conditions: HCC; cited from earlier work

Compound	TSA Expression Rate (ER) [%]
WT1	86
JARID1B	29
MAGE-A10	15
TSGA10	20
CDCA1	100
SSX-1	69
TDRD4	14
DBPC	40

Same assay, conditions: LUNG; cited from earlier work

Compound	TSA Expression Rate (ER) [%]
DCAF12	89
JARID1B	55
LDHC	29
MAGE-A10	24
CDCA1	85
TEX15	21
PRAME	63
CASC5	41
DBPC	30

Same assay, conditions: OVARIAN; cited from earlier work

Compound	TSA Expression Rate (ER) [%]
WT1	63
JARID1B	71
LDHC	43
MAGE-A10	38
TSGA10	35
PRAME	59
SSX-1	2
DBPC	20

Same assay, conditions: PANCREATIC; cited from earlier work

Compound	TSA Expression Rate (ER) [%]
WT1	72
DKK1	84
MAGE-A10	1
CASC5	27
SSX-1	0
MSLN	96
DBPC	60

Same assay, conditions: THYROID; cited from earlier work

Compound	TSA Expression Rate (ER) [%]
WT1	97
LDHC	25
MAGE-A10	2
TEX15	0
PRAME	60
SSX-1	0
NKX3.1	0

Same assay, conditions: TSA expression rate in BLADDER cancer; cited from earlier work

Compound	Expression Rate (ER) % [%]
MPHOSPH1	90
MAGE-A10	28
TSGA10	38
CDCA1	100
TEX15	21
PRAME	19
SSX-1	7

Same assay, conditions: TSA expression rate in CRC; cited from earlier work

Compound	Expression Rate (ER) % [%]
WT1	91
BAGE-1 (RLMKEESPVVSWRLEPEDGTALCFIF; UniProt Q13072 18-43, looked up)	0
LDHC	15
MAGE-A10	3
TSGA10	5
CDCA1	40
TEX15	0
PRAME	4
SSX-1	2
DBPC	90

Same assay, conditions: TSA expression rate in Cervical cancer; cited from earlier work

Compound	Expression Rate (ER) % [%]
WT1	5
LDHC	83
MAGE-A10	0
CDCA1	18
SSX-1	4

Same assay, conditions: TSA expression rate in Esophageal; cited from earlier work

Compound	Expression Rate (ER) % [%]
WT1	88
BAGE-1 (RLMKEESPVVSWRLEPEDGTALCFIF; UniProt Q13072 18-43, looked up)	6
MAGE-A10	27
CDCA1	22
TEX15	20
SSX-1	0

Same assay, conditions: TSA expression rate in GASTRIC cancer; cited from earlier work

Compound	Expression Rate (ER) % [%]
MAGE-A10	30
CDCA1	0
PRAME	21
SSX-1	13
OIP5	48
DBPC	50

Same assay, conditions: TSA expression rate in HEAD and NECK; cited from earlier work

Compound	Expression Rate (ER) % [%]
BAGE-1 (RLMKEESPVVSWRLEPEDGTALCFIF; UniProt Q13072 18-43, looked up)	6
LDHC	0
MAGE-A10	12
TEX15	11
PRAME	61
SSX-1	40
OIP5	12

Same assay, conditions: TSA expression rate in Kidney; cited from earlier work

Compound	Expression Rate (ER) % [%]
BAGE-1 (RLMKEESPVVSWRLEPEDGTALCFIF; UniProt Q13072 18-43, looked up)	0
LDHC	57
MAGE-A10	1
CDCA1	100
TEX15	33
PRAME	40
SSX-1	0
DBPC	10

Same assay, conditions: TSA expression rate in LEUKEMIAS; cited from earlier work

Compound	Expression Rate (ER) % [%]
JARID1B	60
MAGE-A10	0
PRAME	23
SSX-1	31

Same assay, conditions: TSA expression rate in LUNG cancer; cited from earlier work

Compound	Expression Rate (ER) % [%]
BAGE-1 (RLMKEESPVVSWRLEPEDGTALCFIF; UniProt Q13072 18-43, looked up)	10
SYCE1	11
SSX-1	8

Same assay, conditions: TSA expression rate in LYMPHOMAS; cited from earlier work

Compound	Expression Rate (ER) % [%]
SSX-1	6

Same assay, conditions: TSA expression rate in MELANOMA; cited from earlier work

Compound	Expression Rate (ER) % [%]
JARID1B	100
BAGE-1 (RLMKEESPVVSWRLEPEDGTALCFIF; UniProt Q13072 18-43, looked up)	26
LDHC	44
MAGE-A10	45
TSGA10	25
TEX15	27
PRAME	90
BAGE-5 (RLMKEESPVVSWRLEPEDGTALCFIF; UniProt Q86Y27 18-43, looked up)	9
SSX-1	25

Same assay, conditions: TSA expression rate in PEDIATRIC; cited from earlier work

Compound	Expression Rate (ER) % [%]
EPHA2	100
MAGE-A10	33
PRAME	75
SSX-1	76

Same assay, conditions: TSA expression rate in PROSTATE cancer; cited from earlier work

Compound	Expression Rate (ER) % [%]
DCAF12	59
JARID1B	100
BAGE-1 (RLMKEESPVVSWRLEPEDGTALCFIF; UniProt Q13072 18-43, looked up)	0
LDHC	38
MAGE-A10	10
MUC-1	34
TSGA10	15
CDCA1	85
TEX15	13
PRAME	10
DMRT1	24
SSX-1	7
DBPC	40
NKX3.1	70
